Reference: US20240141038A1 (SHANGHAI QILU PHARMACEUTICAL RESEARCH AND DEVELOPMENT CENTRE, published 2024)

What was measured:
[1] = target: T1, Cynomolgus monkey NKp46 for immunization, screening, and testing (Kactus, NKP-CM146) (cynomolgus monkey, UniProt Q95JB9 22-254); assay: ELISA, coated antigen, VHH supernatant, anti-Myc HRP
T1 construct: Bought protein; also called monkey NKp46 antigen protein; cynomolgus monkey NKp46 antigen
Protocol: (§1) In order to obtain positive antibodies that can cross-bind to human NKp46 and cynomolgus monkey NKp46, the above libraries were amplified and added into M13K07 helper phage and assembled into bacteriophages. 1×10¹² pfu of immune camel antibody library and immune alpaca antibody library were added thereto, and the phages were incubated with biotinylated human NKp46 protein (8 μg/mL) bound to magnetic beads for 1 h at room temperature. After washing off the unbound bacteriophages with 0.05% PBST, the phages specifically bound to NKp46 were eluted with […] triethylamine, and after gradient dilution of the bacteriophages above, E. coli SS320 in the logarithmic growth phase were infected. After being cultured overnight at 37° C. on plates containing ampicillin, single-clone was picked for IPTG-induced expression, and the supernatant was used for ELISA assay. ELISA plates were coated with […] human NKp46 antigen or cynomolgus monkey NKp46 antigen overnight at 4° C., then washed 3 times with 0.05% PBST and blocked with 5% skim milk at room temperature for 1 h, and washed 3 times with 0.05% PBST. Then 30 µL of induced supernatant was then added into per well, medium were added to negative control wells, the ELISA plates were incubated at room temperature for 1 h, and finally detected with anti-Myc HRP (VHH with his and c-Myc labels were expressed by the induction of IPTG. Sequence clones that had OD450 values of greater than 1.0 for binding to human NKp46 and cynomolgus monkey NKp46 as determined by ELISA, and of which the ratio of OD450 values to that of negative control were greater than 3 were sequenced, thereby obtaining amino acid sequences of 30 variable regions of heavy chain antibodies disclosed in the present disclosure, as shown in Table 2.

[2] = target: T2, Human NKp46 antigen for immunization, screening, and testing (Kactus, NKP-HM146) (human, UniProt O76036 22-255); assay: as above
T2 construct: Bought protein; also called human NKp46 antigen protein; human NKp46 protein
T2 sequence (O76036 other isoform, or with tags, fused parts or gaps limits assumed): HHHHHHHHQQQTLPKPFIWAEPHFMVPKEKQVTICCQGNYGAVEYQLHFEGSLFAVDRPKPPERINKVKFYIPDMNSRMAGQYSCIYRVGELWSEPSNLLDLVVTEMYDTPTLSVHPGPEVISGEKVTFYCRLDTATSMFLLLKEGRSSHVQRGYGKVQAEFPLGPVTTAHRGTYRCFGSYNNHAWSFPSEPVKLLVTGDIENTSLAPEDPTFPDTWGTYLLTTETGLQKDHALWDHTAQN
Protocol: as §1

T1 sequence (Q95JB9 other isoform, or with tags, fused parts or gaps limits assumed): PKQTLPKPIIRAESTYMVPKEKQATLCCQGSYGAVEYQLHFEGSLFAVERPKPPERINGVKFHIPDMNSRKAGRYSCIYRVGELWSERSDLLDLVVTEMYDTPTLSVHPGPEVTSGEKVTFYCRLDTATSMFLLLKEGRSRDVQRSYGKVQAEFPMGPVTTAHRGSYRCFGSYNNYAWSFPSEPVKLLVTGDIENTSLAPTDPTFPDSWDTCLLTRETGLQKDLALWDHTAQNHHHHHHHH

| OD450 [1] | ratio of OD450 to negative control [1] | OD450 [2] | ratio of OD450 to negative control [2] | Binder |
| --- | --- | --- | --- | --- |
| > 1 | > 3 | > 1 | > 3 | NKp46-PA3 VHH (his and c-Myc labels) (VHH, IPTG-induced E. coli supernatant used in the screening ELISA; also called NKp46-PA3 clone supernatant; not shown: his and c-Myc labels) VHH: DVQLVESGGGLVQAGGSLRLSCAASGRTFNTIHWFRQAPGKEREFVARIWWIERTTFYAASVKGRFTISRDNAKNMVYLQMNSLKPEDTAVYYCAADARYTGSRRWESDYWGQGTQVTVSS |
| > 1 | > 3 | > 1 | > 3 | NKp46-PA22 VHH (his and c-Myc labels) (VHH, IPTG-induced E. coli supernatant used in the screening ELISA; also called NKp46-PA22 clone supernatant; not shown: his and c-Myc labels) VHH: QVQLVESGGGLVQAGGSLRLSCTASGRTFETLHWFRQAPGKEREFVARIWWIGGATFYADSVKGRFTISRDNAKNMVYLQMNSLKPEDTAIYYCAADARYTSNRRWESDYWGQGTQVTVSS |
| > 1 | > 3 | > 1 | > 3 | NKp46-PC2 VHH (his and c-Myc labels) (VHH, IPTG-induced E. coli supernatant used in the screening ELISA; also called NKp46-PC2 clone supernatant; not shown: his and c-Myc labels) VHH: QVQLVESGGGLVQPGGSLRLSCAASGFAFSNYNMFWVRQAPGEGFEWISVINRGGDTADYAASVKGRFTISRDNAKNTLYLQMNSLKTEDTAVYYCARDPLGTTRGQGTLVTVSS |
| > 1 | > 3 | > 1 | > 3 | NKp46-PA40 VHH (his and c-Myc labels) (VHH, IPTG-induced E. coli supernatant used in the screening ELISA; also called NKp46-PA40 clone supernatant; not shown: his and c-Myc labels) VHH: QVQLVESGGGLVQAGGSLRLSCAASGRTFSRYSMGWFRQAPGKEREFVAAISSSGDVTHYADSAKGRFIISRDNAKNTVSLQVNSVNLEDTAVYYCAASLTARATTVTVHPNGYNYWGQGTQVTVSS |
| > 1 | > 3 | > 1 | > 3 | NKp46-PC11 VHH (his and c-Myc labels) (VHH, IPTG-induced E. coli supernatant used in the screening ELISA; also called NKp46-PC11 clone supernatant; not shown: his and c-Myc labels) VHH: DVQLVESGGGSVQAGGSLRLSCAPSPYSANSFSMAWFRQVPGKEREGIACIQAESGSTNVAPSVKGRFSISQDNAKNTLYLQMNNLKPEDTAMYYCAAFKRNVGGCELRPEHWRFWGQGTLVTVSS |
| > 1 | > 3 | > 1 | > 3 | NKp46-PC8 VHH (his and c-Myc labels) (VHH, IPTG-induced E. coli supernatant used in the screening ELISA; also called NKp46-PC8 clone supernatant; not shown: his and c-Myc labels) VHH: EVQLVESGGGSVQAGGSLRLSCAVSRGSMASTGCMAWFRQTPGKEREAVAIINISGTTRYTDSVKGRFTIAQDSAKNTLTLQMNSLKPEDTGMYYCAATQNPRTVGRGYCTGDYFQVGGGGYSFWGQGTQVTVSS |
| > 1 | > 3 | > 1 | > 3 | NKp46-PA45 VHH (his and c-Myc labels) (VHH, IPTG-induced E. coli supernatant used in the screening ELISA; also called NKp46-PA45 clone supernatant; not shown: his and c-Myc labels) VHH: QVQLVESGGGLVQAGGSLRLLCAASGRTFSRLPMAWFRQGPGKDREFVAAISWSGGSTYYADSMKGRFTISRDNAKNTAYLQMNSLRLEDTAVYYCAAVGDSAPYSATIVYTDARAYAYWGQGTQVTVSS |
| > 1 | > 3 | > 1 | > 3 | NKp46-PC4 VHH (his and c-Myc labels) (VHH, IPTG-induced E. coli supernatant used in the screening ELISA; also called NKp46-PC4 clone supernatant; not shown: his and c-Myc labels) VHH: EVQLVESGGGSVQAGGSLRLSCTVSGYTGTIEYMGWGWFRQAPGKEREGVAYINTGGGTSVYDDSVKGRFTISKDDVNLTVYLQMNSLKPEDTAIYYCATGSFFGIWYKVPATQYFHYWGQGTQVTVSS |
| > 1 | > 3 | > 1 | > 3 | NKp46-PC3 VHH (his and c-Myc labels) (VHH, IPTG-induced E. coli supernatant used in the screening ELISA; also called NKp46-PC3 clone supernatant; not shown: his and c-Myc labels) VHH: DVQLVESGGGSVEAGGSLRLSCAASGYRQRTMGWFRQAPGKAREGVACIYTGPTTTFTDYADSVKGRFTITQDNAKNTVYLQMNSLKPEDTAMYYCAANLAYPLTIIPDTRWGQGTQVTVSS |
| > 1 | > 3 | > 1 | > 3 | NKp46-PA63 VHH (his and c-Myc labels) (VHH, not shown: small tags and cut ends, also called NKp46-PA63 clone supernatant) VHH: EVQLVESGGGLVQPGGSLRLSCAASGRTSTSYAMGWFRQAPGKEREFVAAINRSGDFPYYADSVKGRFTIFRDNAKNTVYLQMSSVKPEDTGVYFCAAAPRAPATQVVISAFGYEYWGQGTQVTVSS |
| > 1 | > 3 | > 1 | > 3 | NKp46-PC1 VHH (his and c-Myc labels) (VHH, IPTG-induced E. coli supernatant used in the screening ELISA; also called NKp46-PC1 clone supernatant; not shown: his and c-Myc labels) VHH: QVQLVESGGGSVQAGGSLTLSCATSGYTYRTDCMGWFRQAPGKEREGLATIYTSDGRTDYANSVKGRFTISQDNAKNTLYLHMNNLKPEDTAIYYCAADPQYGGVCPSGGWNYWGQGTQVTVSS |
| > 1 | > 3 | > 1 | > 3 | NKp46-PC7 VHH (his and c-Myc labels) (VHH, IPTG-induced E. coli supernatant used in the screening ELISA; also called NKp46-PC7 clone supernatant; not shown: his and c-Myc labels) VHH: EVQLVESGGGSVQAGGSLRLSCAASGYTYRTDCMGWFRQAPGKEREGLATIYTSDGRTAYADSVKGRFTISQDNAKNTLYLDMNTLKPEDTAMYYCAADLQYGGSCPSGGWKYWGQGTLVTVSS |
| > 1 | > 3 | > 1 | > 3 | NKp46-PC12 VHH (his and c-Myc labels) (VHH, IPTG-induced E. coli supernatant used in the screening ELISA; also called NKp46-PC12 clone supernatant; not shown: his and c-Myc labels) VHH: QVQLVESGGGSVQTGGSLRLSCTAPGFTTDSCGMDWYRQAAGKQREWVSRIRPDGRTDYVESVKGRFTISEDKAKYTVYLQMNSLKPEDTAMYSCTTWGLCTAKFRWGQGTQVTVSS |
| > 1 | > 3 | > 1 | > 3 | NKp46-PA2 VHH (his and c-Myc labels) (VHH, IPTG-induced E. coli supernatant used in the screening ELISA; also called NKp46-PA2 clone supernatant; not shown: his and c-Myc labels) VHH: DVQLVESGGGLVQAGGSLRLSCAASGRTLSSYAMGWFRQAPGLEREFVAAISRISGDTYSPDSVKGRFTISRDNAKNTLYLQMNSLKPEDTAVYYCAASATPSATNIYTNQYAYGDWGQGTQVTVSS |
| > 1 | > 3 | > 1 | > 3 | NKp46-PA34 VHH (his and c-Myc labels) (VHH, IPTG-induced E. coli supernatant used in the screening ELISA; also called NKp46-PA34 clone supernatant; not shown: his and c-Myc labels) VHH: QVQLVESGGGLVQTGGSLRLSCAASGSTSSFYRMGWFRQAPGKEREAVARISSSAGLIYYVDSVKGRFTISRAGAKNTVYLQMNSLKPEDTAVYYCAADRHGTRWDYWGQGTQVTVSS |
| > 1 | > 3 | > 1 | > 3 | NKp46-PC16 VHH (his and c-Myc labels) (VHH, IPTG-induced E. coli supernatant used in the screening ELISA; also called NKp46-PC16 clone supernatant; not shown: his and c-Myc labels) VHH: DVQLVESGGGLVQPGGSLRLSCAISGFTFSIVSMSWVRQAPGKGPERVSWINGDSSNTSYADSVKGRFTISRDNARNMLYLQMNSLKSEDTARYYCTTQNSHYDIRFGYWGQGTQVTVSS |
| > 1 | > 3 | > 1 | > 3 | NKp46-PC6 VHH (his and c-Myc labels) (VHH, IPTG-induced E. coli supernatant used in the screening ELISA; also called NKp46-PC6 clone supernatant; not shown: his and c-Myc labels) VHH: DVQLVESGGGSVQAGGSLRLSCAASGYRSRHYCMGWFRQFPGKERERVALINTGGPTTFYADFVEGRFTISLDNAKNTLSLQMNSLKPEDTAMYYCAAGPPSSDSGSGCYVPEYMYNYWGQGTQVTVSS |
| > 1 | > 3 | > 1 | > 3 | NKp46-PA36 VHH (his and c-Myc labels) (VHH, IPTG-induced E. coli supernatant used in the screening ELISA; also called NKp46-PA36 clone supernatant; not shown: his and c-Myc labels) VHH: QVQLVESGGGLVQAGGSLRLSCAASGRSFSRYAMGWFRQAPGKERDFVAAISSSGDPTYYADSVKGRFTISRVNAKNTVYLQMNSVNPGDTAVYYCAAGLTARDTTVVVHPNGYSYWGQGTQVTVSS |
| > 1 | > 3 | > 1 | > 3 | NKp46-PC9 VHH (his and c-Myc labels) (VHH, IPTG-induced E. coli supernatant used in the screening ELISA; also called NKp46-PC9 clone supernatant; not shown: his and c-Myc labels) VHH: QVQLVESGGGSVQAGGSLRLSCAASGYTYRRYCMAWFRQGPGKEREGVACLDRDGSTTYADSVKGRFTISRDNANDTLYLQMNSLKPEDTALYRCAAAQPGDCWGRRYGFNTWGQGTLVTVSS |
| > 1 | > 3 | > 1 | > 3 | NKp46-PA31 VHH (his and c-Myc labels) (VHH, IPTG-induced E. coli supernatant used in the screening ELISA; also called NKp46-PA31 clone supernatant; not shown: his and c-Myc labels) VHH: DVQLVESGGGLVQAGDSLRLSCAVSGRTFSRLPMGWFRQGPGKDREFVAAISWSSSTTYYADSVKGRFFISRDNAKNTAYLQMNNLRLEDTAVYYCAAVGGSLDYSATVVYTAARAYADWGQGTLVTVSS |
| > 1 | > 3 | > 1 | > 3 | NKp46-PA69 VHH (his and c-Myc labels) (VHH, IPTG-induced E. coli supernatant used in the screening ELISA; also called NKp46-PA69 clone supernatant; not shown: his and c-Myc labels) VHH: QVQLVESGGGLIQAGGSLRLSCVASERSLTLYAMGWFRQAPGLEREFVAGISRTGDTTYSPDSVKGRFTISRDNAKNVLYLQMNSLKPDDTAVYYCAASATYSATNIYTHQRAYGDWGQGTQVTVSS |
| > 1 | > 3 | > 1 | > 3 | NKp46-PC13 VHH (his and c-Myc labels) (VHH, IPTG-induced E. coli supernatant used in the screening ELISA; also called NKp46-PC13 clone supernatant; not shown: his and c-Myc labels) VHH: DVQLVESGGGSVQAGGSLRLSCAASGYTRSIYYMGWFRQAPGKEREGVAVMHTGGGSTYYTDSVKGRFTISQDNAKNTVYLQMNSLKPEDTAMYYCAASKYLLAFGGVEWILRPAGGWDYWAQGTQVTVSS |
